The values that follow come from patent US20040033952A1 (published 2004).

Assay [1] concerns the target T1, human IGFBP-1 (human, UniProt P08833 26-259).
T1 construct: mature; also called IGFBP-I
T1 sequence (looked up): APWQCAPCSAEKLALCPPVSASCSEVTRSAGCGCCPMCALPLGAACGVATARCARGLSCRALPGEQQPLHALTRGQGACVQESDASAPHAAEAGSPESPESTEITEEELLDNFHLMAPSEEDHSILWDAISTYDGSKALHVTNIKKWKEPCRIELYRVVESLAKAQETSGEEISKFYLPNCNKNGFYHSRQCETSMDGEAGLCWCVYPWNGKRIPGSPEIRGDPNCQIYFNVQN
Nature of the assay: competitive phage ELISA. On the procedure:
(§1) E. coli cells (XL1-Blue, Stratagene) freshly transformed with phagemid vector were grown overnight in 5 mL 2YT medium (Sambrook et al., supra) in the presence of M13-VCS helper phage (Stratagene). Phage particles were harvested and resuspended in PBS buffer as described in Lowman, H. B., “Phage Display of Peptide Libraries on Protein Scaffolds,” in Cabilly, S. (ed.), Combinatorial Peptide Library Protocols (Humana Press Inc.: Totowa, N.J., 1998), pp. 249-264. Then phage concentrations were normalized to yield a maximal ELISA signal of 0.2-0.4 for each mutant (Lowman, in Cabilly, S. (ed.), supra). Threefold serial dilutions of soluble competitor were prepared on non-absorbent microtiter plates (Nune, F, 96 wells) with binding buffer (0.5% TWEEN™ 20/PBS) containing phage at the previously-determined concentrations. The dilution range of competitor protein extended over six orders of magnitude, starting at 5 μM for IGFBP-1 and 500 nM for IGFBP-3. After blocking, the plates containing immobilized target were washed with 0.05% TWEEN™/PBS buffer and subsequently incubated with 80 μl/well of the premixed phage-competitor solutions for 1 hour at room temperature. After washing, bound phage was detected with 80 μl/well of a solution containing a primary rabbit anti-phage polyclonal antibody and a secondary goat anti-rabbit monoclonal antibody-horseradish peroxidase conjugate in 0.5% TWEEN20™/PBS. o-Phenylenediamine (Sigma) and tetramethylbenzidine (Kirkegaard and Perry) were used as chromogenic substrates, resulting in product detection at 492 and 450 nm, respectively. IC₅₀ values were determined by fitting the binding data to a generic saturation curve (Lowman, in Cabilly, S. (ed.), supra).

Assay [2] concerns the target T2, recombinant human IGFBP-3 (human, UniProt P17936 28-291).
T2 construct: mature
The assay can be described thus: competitive phage ELISA. The method, then:
as §1

For assay [3], the target named is T3, human IGFBP-1 (human), P08833.
T3 chain: T1 sequence (looked up)
The assay can be described thus: competitive phage ELISA. Particulars: remark: other sources report otherwise.

Assay [4] has the same target. Nature of the assay: competitive phage ELISA, IGFBP-3-coated wells, soluble IGFBP-1 as competitor (FIG. 3A). The following applies: remark: other sources report otherwise.

Where a chain is given by its changes, count along the chain named. Numbers in names are those of the source.

T2 sequence (P17936 28-291): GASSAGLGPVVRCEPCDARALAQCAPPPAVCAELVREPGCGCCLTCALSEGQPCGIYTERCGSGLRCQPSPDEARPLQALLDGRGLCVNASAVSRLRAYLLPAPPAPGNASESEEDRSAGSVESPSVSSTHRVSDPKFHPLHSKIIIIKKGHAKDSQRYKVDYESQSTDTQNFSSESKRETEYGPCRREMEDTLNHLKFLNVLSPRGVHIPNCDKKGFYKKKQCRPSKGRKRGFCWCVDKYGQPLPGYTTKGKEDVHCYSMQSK

“IGF-I L5A (phage-displayed) (from UniProt P69168 267-424) (ligand)”: the relative IC50 (IC50 mut/IC50 G1S-A70V) stood at 6.7 in assay [1] and 2 in assay [2].

B1: IGF-I F49A (phage-displayed), P07455 51-118 (ligand, not shown: large carriers; small tags and cut ends)
chain: SPETLCGAELVDALQFVCGDRGFYFNKPTGYGSSSRRAPQTGIVDECCARSCDLRRLEMYCAPLKPAKSV
Molecule B1 returned a relative IC50 (IC50 mut/IC50 G1S-A70V) in assay [3] greater than 100. In assay [4], the shift of the binding curve against G1S-A70V phage is greater than 100 fold.

B2: Ala(1-3)-IGF-I (phage-displayed triple alanine mutant) (ligand)
chain: B1 chain with S1A, P2A, E3A, A49F
B2: the IC50 in assay [1] turned out to be 90.4 nM; in assay [2], 1.12 nM.

B3: IGF-I G7A (phage-displayed) (ligand)
chain: B1 chain with G7A, A49F
notes: G1S-A70V template; monovalent M13 display; not shown: M13 gene III fragment (residues 249-406), the display carrier, and its junction to IGF-I
On to B3, for which, in assay [2], the IC50 is 4.58 nM.
